This passage reports binding result and Kd results from patent US20060270837A1 (published 2006).

T1: TR10 (human, UniProt Q9UBN6 56-211, limits assumed)
T1 construct: The construct coated in the specificity phage ELISA is not described; also called TRAIL-R4; DcR2
T1 sequence: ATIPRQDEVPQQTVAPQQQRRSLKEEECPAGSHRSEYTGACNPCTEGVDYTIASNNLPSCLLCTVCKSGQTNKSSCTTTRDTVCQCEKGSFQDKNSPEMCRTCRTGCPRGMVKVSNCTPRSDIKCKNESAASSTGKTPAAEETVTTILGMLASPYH

T2: TR4-Fc fusion protein (human, UniProt O00220 109-240)
T2 construct: also called TR4:Fc receptor; not shown: Fc region
T2 chain: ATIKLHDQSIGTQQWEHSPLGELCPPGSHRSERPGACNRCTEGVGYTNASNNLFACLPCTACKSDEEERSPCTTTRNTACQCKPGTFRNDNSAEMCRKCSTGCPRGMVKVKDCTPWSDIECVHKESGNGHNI

B1: scFv T1014A04 (scFv)
scFv: EVQLVQSGADVKRPGASVKVSCKISGDSFNAYFIHWVRQAPGQGLEWMGWFNPDSGTADSAQKFHGRVTMTRDTSSSTAFLELSRLRSDDTAVYYCVRQHRGNTFAPWGRGTMVTVSSGGGGSGGGGSGGGGSAQSVLTQPPSASGSPGQSVTISCTGTTSDVGGYNYVSWYQQHPGKAPKLMIYGVNQRPSGVPDRFSGSKSGNTASLTVSGLQAEDEADYYCSSYAGSNNWVFGGGTKLTVLG
B2: scFv T1014F08 (scFv)
scFv: EVQLVQSGAEVKKPGASVKLSCRVSGDTFTAYFIHWVRQAPGQGPEWMGWFNPISGTAGSAARFRGRVAMTRDTSISTAYMELNRLTFDDTAVYYCARQHRGNTFDPWGKGTLVTVSSGGGGSGGGGSGGGGSALPVLTQPPSASGSPGQSVTISCTGTSSDVGGYKYVSWYQQHPGKAPKLMIYEVSMRPSGVPDRFSGSKSGNTASLTVSGLQAEDEADYYCASYAGSNNWVFGGGTKLTVLG
B3: scFv T1014G04 (scFv)
scFv: EVQLVQSGADVKRPGASVKVSCKISGDSFTAYFIHWVRQAPGQGLEWMGWFNPDSGTADSAQKFHGRVTMTRDTSSSTAFLELSRLRSDDTAVYYCVRQHRGNTFAPWGRGTLVTVSSGGGGSGGGGSGGGGSAQPVLTQPPSASGSPGQSVTISCTGTSSDVGSYEYVSWYQQHPGKAPRLMISEVNKRPSGVPNRFSGSKSGNTASLTVSGLQADDEADYYCSSYAGSNNWVFGGGTKVTVLG
B4: scFv T1014G03 (scFv)
scFv: EVQLVQSGAEVKMPGASVKLSCRVSGDTFTAYFIHWVRQAPGQGLEWMGWFNPISGTAGSAEKFRGRVAMTRDTSISTAYMELNRLTFDDTAVYYCARQHRGNTFDPWGQGTLVTVSSGGGGSGGGGSGGGGSAQSALTQPASVSGSPGQSITISCTGTSSDIGAYKYVSWYQQHPGKAPKLVIYEVSNRPSGVSSRFSGSKSGQTASLTISGLQADDEADYYCNSYQGYNTWVFGGGTKVTVLG
B5: scFv T1014B11 (scFv)
scFv: EVQLVQSGAEVKKPGASVKVSCKISGDSFTAYFIHWLRQAPGEGLEWMGWFNPISGTAGSPQKFHGRVAMTRDTSISTAYMELTRLASDDTAIYYCARQHHSNTFDPWGQGTLVTVSSGGGGSGGGGSGGGGSAQSALTQPASVSGSPGQSITISCTGTNSDVGGYNYVSWYQQHPGKAPKLMIYEVNNRPSGVSNRFSGSKSGNTASLTISGLQADDEADYYCSSYTTSNTWVFGGGTKLTVLG
B6: IgG1 antibody comprising the VH and VL domains of the T1014G03 scFv (antibody, V domains shown)
VH: EVQLVQSGAEVKMPGASVKLSCRVSGDTFTAYFIHWVRQAPGQGLEWMGWFNPISGTAGSAEKFRGRVAMTRDTSISTAYMELNRLTFDDTAVYYCARQHRGNTFDPWGQGTLVTVSS
VL: QSALTQPASVSGSPGQSITISCTGTSSDIGAYKYVSWYQQHPGKAPKLVIYEVSNRPSGVSSRFSGSKSGQTASLTISGLQADDEADYYCNSYQGYNTWVFGGGTKVTVLG
notes: Whole IgG1
B7: IgG1 antibody comprising the VH and VL domains of the T1014A04 scFv (antibody, V domains shown)
VH: EVQLVQSGADVKRPGASVKVSCKISGDSFNAYFIHWVRQAPGQGLEWMGWFNPDSGTADSAQKFHGRVTMTRDTSSSTAFLELSRLRSDDTAVYYCVRQHRGNTFAPWGRGTMVTVSS
VL: QSVLTQPPSASGSPGQSVTISCTGTTSDVGGYNYVSWYQQHPGKAPKLMIYGVNQRPSGVPDRFSGSKSGNTASLTVSGLQAEDEADYYCSSYAGSNNWVFGGGTKLTVLG
notes: Whole IgG1; also called IgG1 format of T1014A04
B8: IgG1 antibody comprising the VH and VL domains of the T1014G04 scFv (antibody, V domains shown)
VH: B7 VH with N30T, M113L
VL: QPVLTQPPSASGSPGQSVTISCTGTSSDVGSYEYVSWYQQHPGKAPRLMISEVNKRPSGVPNRFSGSKSGNTASLTVSGLQADDEADYYCSSYAGSNNWVFGGGTKVTVLG
notes: Whole IgG1; also called T14G04

Positions count from the first letter of the chain named.

One may read the Kd as a measure of binding affinity in units of concentration. Lower therefore signals tighter binding.

T3 sequence (O14763 52-184 limits assumed): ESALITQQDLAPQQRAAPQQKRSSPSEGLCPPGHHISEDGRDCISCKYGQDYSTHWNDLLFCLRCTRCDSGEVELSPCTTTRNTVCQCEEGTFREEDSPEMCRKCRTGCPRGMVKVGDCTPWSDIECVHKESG
Sequence of BLyS (Q9Y275 134-285 limits assumed): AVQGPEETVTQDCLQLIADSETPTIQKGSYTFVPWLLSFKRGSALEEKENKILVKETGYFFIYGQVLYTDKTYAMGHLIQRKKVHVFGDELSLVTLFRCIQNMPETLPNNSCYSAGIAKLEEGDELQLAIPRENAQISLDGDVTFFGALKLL

The target of the first test is BLyS (human, UniProt Q9Y275 134-285). Description: specificity phage ELISA, antigen coated at 1 ug/ml, anti-M13-HRP detection. The method, then:
(§1) Flexible 96-well plates (Falcon) were coated overnight at 4° C. with each antigen (1 μg/ml). All antigens were coated in PBS. After coating, the solutions were removed from the wells, and the plates were blocked for 1 hour at room temperature in MPBS. The plates were washed 3 times with PBS and then 50 μl of pre-blocked phage was added to each well. The plates were incubated at room temperature for 1 hour and then washed with 3 changes of PBST followed by 3 changes of PBS.
(§2) To each well, 50 μl of an anti-M13-HRP conjugate (Pharmacia) at a 1 in 5000 dilution in MPBS was added and the plates incubated at room temperature for 1 hour. Each plate was washed three times with PBST followed by three times with PBS.
(§3) Fifty μl of TMB substrate was then added to each well, and incubated at room temperature for 30 minutes or until colour development. The reaction was stopped by the addition of 25 μl of 0.5 M H₂SO₄. The signal generated was measured by reading the absorbance at 450 nm (A₄₅₀) using a microtitre plate reader (Bio-Rad 3550).
For orientation: ELISA stands for enzyme-linked immunosorbent assay.
Turning to B1, the binding result is recorded as “no binding”.

As to B2, the binding result is “no binding”.

As to B3, the binding result is “no binding”.

As to B4, the binding result is given as “no binding”.

For B5, the binding result is listed as “no binding”.

A further test has as its target T3, TR7 (human, UniProt O14763 52-184).
T3 construct: The construct coated in the specificity phage ELISA is not described; also called TRAIL-R2; DR5
The test is described as above. The procedure: as §1, §2, §3
As to B1, the binding result is reported as “no binding”.

As for B2, the binding result is given as “no binding”.

In the case of B3, the binding result is listed as “no binding”.

For B4, the binding result is listed as “no binding”.

As to B5, the binding result is listed as “no binding”.

The next test concerns the target T1, TR10. The description is as above. The procedure: as §1, §2, §3
For B1, the binding result is “no binding”.

For B2, the binding result is “no binding”.

B3: the binding result is “no binding”.

With B4, the binding result is “no binding”.

In the case of B5, the binding result is on record as “no binding”.

The next test has as its target T2, TR4-Fc fusion protein. Description: SPR (BIAcore 2000), TR4:Fc amine-coupled on CM5 chip, IgG1 as analyte 0.75-65 nM, TR2:Fc control cell, double reference subtraction, 1:1 Langmuir fit, 25 C. The procedure:
The optimal pH for this coupling was analyzed using preconcentration experiments ranging from pH 4-7 and was determined to be pH 4.0 for both the TR4 and the TR2 receptor. Amine coupling was used to covalently bind each receptor (fc) to the dextran matrix on the CM5 sensor chip. The immobilization experiment was performed using the manual injection mode. The entire immobilization experiment was performed at 5 μL/min. A 3-minute injection of EDC/NHS (1:1) was applied to each flow cell to active esters. A target level of ˜200RU was set as the goal for all each flow cell. Fc-fusion receptors, TR4 and TR2 at 5 μg/mL, were immobilized onto individual flow cells of a sensor chip. The amount applied varied from 8-14 μL. A 3-minute ethanolamine injection completed the immobilization experiment by inactivating the esters.
The kinetics cycles were performed as follows: The flow rate for the entire cycle was 25 μL/minute with the flow path including both the control (TR2) and experimental (TR4) flow cell at all times. A 1-minute buffer injection was applied to stabilize the baseline. The purified antibody (IgG1 antibody comprising the VH and VL domains of each of the T1014A04, T1014G03, T1014F08, and T14G04 scFvs) was diluted from 10 μg/mL (65 nM) to 0.115 μg/mL (0.75 nM) in running buffer and tested in duplicate. Each concentration was in contact with the control (TR2) and the experimental (TR4) flow cell during a 4-minute association and a 10-minute dissociation phase. Regeneration was performed using 25 mM NaOH from 5-12 μL depending on the sample concentration.
A double-reference subtraction was performed, which refers to the control flow cell subtraction for every cycle, in addition to a buffer cycle subtraction. The 1:1 Langmuir model was used for all evaluation fitting.
Background: SPR reads the build-up and loss of mass on a sensor chip optically.
As for B6, binding was characterised by a dissociation constant (Kd) of 0.554 nM.

B7 returned a Kd of 0.468 nM.

Turning to B8, binding was put at a Kd of 0.194 nM.
